Measurements from US20230167182A1 (BIOSION, published 2023).
Substitutions are numbered along the chain they refer to.

T1: recombinant human IL6R-his (human, UniProt P08887 20-365)
T1 construct: In house made; the entry includes the C-terminal His tag; also called human IL6R-his protein
T1 sequence: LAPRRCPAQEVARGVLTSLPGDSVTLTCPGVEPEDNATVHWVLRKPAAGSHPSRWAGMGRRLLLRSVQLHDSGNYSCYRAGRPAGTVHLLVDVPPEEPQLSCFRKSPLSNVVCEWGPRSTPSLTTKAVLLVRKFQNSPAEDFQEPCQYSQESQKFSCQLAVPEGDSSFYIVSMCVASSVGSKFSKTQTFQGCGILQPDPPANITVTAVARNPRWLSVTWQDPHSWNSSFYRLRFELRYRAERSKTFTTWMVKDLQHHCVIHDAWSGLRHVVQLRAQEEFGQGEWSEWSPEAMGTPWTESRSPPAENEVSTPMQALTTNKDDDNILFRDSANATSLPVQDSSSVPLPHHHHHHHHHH

B1: Chimeric 1B5 (antibody, human IgG1, kappa, V domains shown)
VH: QVQLQQPGAELVKPGASVKLSCKASGYTFTSYWMHWVKQRPGQGLEWIGEINPSNGRTNYNENFKSKATLTVDKSSSTAYMQLSSLTSEDSAVYYCARLNTHYVFDYWGQGTTLTVSS
VL: EIVLTQSPTILAASPGEKITFTCSVSSSISSNYLHWYQQKPGFSPKLLIYRTSNLASGVPARFSGSGSGTSYSLTIGTMEAEDVATYYCQQGSGIPFTFGSGTKLEIKR
notes: Mouse variable regions on human IgG1 / human kappa constant regions; also called chimeric antibody 1B5
B2: Chimeric 1H9 (antibody, human IgG1, kappa, V domains shown)
VH: QVQLQQPGAELVKPGASVKLSCKASGYTFTSYWMHWVKLRPGQGLEWIGEINPTNGRTNYYEKFKNRATLTADKSSSTAYMQLSSLTFEDSAVYFCAKFHYSRWYFDVWGTGTTVTVSS
VL: DIVMTQSQKFMSTSVGDRVSITCKASQNVGTAVVWYQQKPGQSPKLLINPASNRYTGVPDRFTGSGSGTDFTLTISNMQSEDLADYFCQQYSSYPLTFGAGTKLELKR
notes: Mouse variable regions on human IgG1 / human kappa constant regions; also called chimeric antibody 1H9
B3: humanized antibody hu1H7-V6 (antibody, human IgG1, kappa, V domains shown)
VH: QVQLVQSGAEVKKPGASVKVSCKASGYTFTNYWMHWVRQAPGQGLEWIGEINPTNGRTNYNENFKSKVTLTVDTSTSTVYMELSSLRSEDTAVYYCARLNTHYVFDSWGQGTLVTVSS
VL: EIVLTQSPGTLSLSPGERATLSCSVSSSISSNYLHWYQQKPGLSPRLLISRTSTLASGIPARFSGSGSGTEYTLTISRMQSEDFAVYYCQQGSGIPFTFGQGTKLEIKR
notes: Human IgG1 / kappa
B4: humanized antibody hu1H7-V1 (antibody, human IgG1, kappa, V domains shown)
VH: B3 VH with T74K, V79A
VL: B3 VL
notes: Human IgG1 / kappa; also called hu1H7-Vl
B5: humanized antibody hu1H7-V1-2 (antibody, human IgG1, kappa, V domains shown)
VH: B3 VH with R38K, E46D, V68A, T74K, V79A
VL: B3 VL with S22T, L43F, E71S, T73S
notes: Human IgG1 / kappa; also called hu1H7-Vl-2
B6: humanized antibody hu1H7-V2 (antibody, human IgG1, kappa, V domains shown)
VH: B3 VH with V72R
VL: B3 VL
notes: Human IgG1 / kappa
B7: humanized antibody hu1H7-V3 (antibody, human IgG1, kappa, V domains shown)
VH: B3 VH with L70M
VL: B3 VL
notes: Human IgG1 / kappa
B8: humanized antibody hu1H7-V7 (antibody, human IgG1, kappa, V domains shown)
VH: B3 VH with T74K, V79A
VL: B3 VL with Y72F, M79L
notes: Human IgG1 / kappa
B9: humanized antibody hu1H7-V8 (antibody, human IgG1, kappa, V domains shown)
VH: B3 VH with V72R
VL: B3 VL with Y72F, M79L
notes: Human IgG1 / kappa
B10: humanized antibody hu1H7-V9 (antibody, human IgG1, kappa, V domains shown)
VH: B3 VH with L70M
VL: B3 VL with Y72F, M79L
notes: Human IgG1 / kappa
B11: humanized antibody hu1H7-V11 (antibody, human IgG1, kappa, V domains shown)
VH: B3 VH with K67R
VL: B3 VL with Y72F, M79L
notes: Human IgG1 / kappa
B12: humanized antibody hu1H7-V12 (antibody, human IgG1, kappa, V domains shown)
VH: B3 VH
VL: B3 VL with Y72F, M79L
notes: Human IgG1 / kappa

Biological target: T1, recombinant human IL6R-his
Experiment: SPR Biacore; antibody captured by anti-human IgG on CM5, human IL6R-his at 100 nM
Protocol: (§1) Un-reacted moieties on the biosensor surface were blocked with ethanolamine. […] Then, serially diluted recombinant human IL6R-his (in house made, amino acid sequence set forth in SEQ ID NO: 44) or macaca IL6R-his protein (in house made, amino acid sequence set forth in SEQ ID NO: 45), starting at 100 nM with a 2-fold serial dilution in HBS-EP⁺ buffer (provided by Biacore), was flowed onto the chip at a flow rate of 30 μL/min. The antigen-antibody association kinetics was followed for 2 minutes and the dissociation kinetics was followed for 10 minutes. The association and dissociation curves were fit to a 1:1 Langmuir binding model using BIAcore evaluation software.
The recombinant human IL6R-his (amino acid sequence set forth in SEQ ID NO: 44) at the concentration of 100 nM instead of serially diluted recombinant human IL6R-his, was flowed onto the chip at a flow rate of 30 μL/min.

Row | Binder | Kd | koff | kon
1 | B1 | 0.915 nM | 0.000194 s⁻¹ | 212000 M⁻¹ s⁻¹
2 | B2 | 0.915 nM | 0.000194 s⁻¹ | –

Biological target: T1, recombinant human IL6R-his
Experiment: SPR Biacore; antibody from diluted cell supernatant captured by anti-human IgG on CM5, human IL6R in flow
Protocol: as §1
Cell supernatants containing humanized antibodies were harvested after six days in shaking flasks and directly subjected to BIAcore test following the protocol described above with modifications.

Row | Binder | Kd | koff | kon
3 | B3 | 0.584 nM | 0.000195 s⁻¹ | 334000 M⁻¹ s⁻¹
4 | B4 | 0.669 nM | 0.000173 s⁻¹ | 258000 M⁻¹ s⁻¹
5 | B5 | 0.63 nM | 0.000165 s⁻¹ | 262000 M⁻¹ s⁻¹
6 | B6 | 0.733 nM | 0.000197 s⁻¹ | 269000 M⁻¹ s⁻¹
7 | B7 | 0.568 nM | 0.000176 s⁻¹ | 311000 M⁻¹ s⁻¹
8 | B8 | 0.855 nM | 0.000199 s⁻¹ | 233000 M⁻¹ s⁻¹
9 | B9 | 0.91 nM | 0.000199 s⁻¹ | 218000 M⁻¹ s⁻¹
10 | B10 | 1.05 nM | 0.000222 s⁻¹ | 212000 M⁻¹ s⁻¹
11 | B11 | 0.849 nM | 0.000202 s⁻¹ | 238000 M⁻¹ s⁻¹
12 | B12 | 0.744 nM | 0.000207 s⁻¹ | 279000 M⁻¹ s⁻¹

Biological target: T2, human IL6R-Fc protein (human, biotin-labeled in the ELISAs (sites not given))
T2 construct: In house made; also called biotin-labeled human IL6R-Fc protein
Experiment: capture ELISA: antibody captured on anti-IgG F(ab')2 coated plate, then biotin-labeled human IL6R-Fc, streptavidin-HRP
Protocol: (§2) For the capture ELISA, 96-well micro plates were coated with 2 μg/ml AffiniPure Goat Anti-Mouse IgG, F(ab′)₂ fragment specific (Jackson ImmunoResearch Laboratories, Inc., Cat #115-005-072) in PBS, 100 μl/well, and incubated for 2 hours at 37° C. Plates were washed once with wash buffer (PBS+0.05% v/v Tween-20, PBST) and then blocked with 200 μl/well blocking buffer (5% w/v non-fatty milk in PBST) overnight at 4° C. […] Plates containing captured anti-IL6R antibodies were incubated with biotin-labeled human IL6R-Fc protein (prepared in house, SEQ ID NO: 43, 39.5 ng/ml in 2.5% w/v non-fatty milk in PBST, 100 μl/well) for 40 minutes at 37° C., washed 4 times, and incubated with streptavidin conjugated HRP (1:10000 dilution in PBST, Jackson ImmunoResearch Laboratories, Inc., Cat #016-030-084, 100 μl/well) for 40 minutes at 37° C. After a final wash, plates were incubated with 100 μl/well ELISA substrate TMB (InnoReagents, Cat #TMB-S-002). The reaction was stopped 3-10 minutes later at room temperature with 50 μl/well 1M H₂SO₄, and the absorbance of each well was read on a microplate reader using dual wavelength mode at 450 nm for TMB and 630 nm as the reference wavelength. Then the OD (450-630) values were plotted against antibody concentration. Data was analyzed using Graphpad Prism software and EC₅₀ values were reported.
(§3) For the capture ELISA, AffiniPure Goat Anti-Human IgG, F(ab′)₂ fragment specific (Jackson Immuno Research, Cat #109-005-097) was used instead of AffiniPure Goat Anti-Mouse IgG, F(ab′)₂ fragment specific, 100 μl/well.
Target sequence in this assay (chain, as listed by the source limits assumed): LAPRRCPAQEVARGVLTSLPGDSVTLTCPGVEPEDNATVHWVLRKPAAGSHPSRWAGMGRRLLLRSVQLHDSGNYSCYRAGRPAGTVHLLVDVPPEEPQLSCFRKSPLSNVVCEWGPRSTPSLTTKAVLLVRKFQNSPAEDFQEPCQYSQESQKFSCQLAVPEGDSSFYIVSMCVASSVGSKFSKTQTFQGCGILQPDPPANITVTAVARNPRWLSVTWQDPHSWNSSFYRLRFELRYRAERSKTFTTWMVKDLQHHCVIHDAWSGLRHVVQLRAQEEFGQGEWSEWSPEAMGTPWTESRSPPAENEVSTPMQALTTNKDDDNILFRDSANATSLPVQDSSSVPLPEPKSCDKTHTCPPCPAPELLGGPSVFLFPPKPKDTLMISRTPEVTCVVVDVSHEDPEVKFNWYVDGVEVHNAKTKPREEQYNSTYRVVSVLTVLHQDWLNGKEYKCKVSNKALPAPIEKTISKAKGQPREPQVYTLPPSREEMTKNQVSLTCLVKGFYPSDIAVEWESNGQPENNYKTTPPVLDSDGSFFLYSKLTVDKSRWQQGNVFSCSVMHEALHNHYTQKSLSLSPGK

Row | Binder | EC50
13 | B1 | 0.101 nM

Biological target: T2, human IL6R-Fc protein
Experiment: as above
Remark: another data set of the same source
Protocol: as §2, §3

Row | Binder | EC50
14 | B2 | 0.0897 nM

Biological target: T2, human IL6R-Fc protein
Experiment: ligand blocking ELISA: antibody pre-incubated with biotin-labeled human IL6R-Fc, added to plate-coated human IL6 (blocked ligand: human IL6)
Target sequence in this assay (chain, as listed by the source limits assumed): as above

Row | Binder | IC50
15 | B1 | 0.299 nM

Biological target: T2, human IL6R-Fc protein
Experiment: as above
Remark: another data set of the same source

Row | Binder | IC50
16 | B2 | 0.213 nM

Biological target: T2, human IL6R-Fc protein
Experiment: benchmark blocking ELISA: antibody pre-incubated with biotin-labeled human IL6R-Fc, added to plate-coated Tocilizumab (competitor: Tocilizumab)
Target sequence in this assay (chain, as listed by the source limits assumed): as above

Row | Binder | IC50
17 | B1 | 0.317 nM

Biological target: T2, human IL6R-Fc protein
Experiment: as above
Remark: another data set of the same source

Row | Binder | IC50
18 | B2 | 0.338 nM
